The source of these data is PMC6232189, “Expression optimization of recombinant cholesterol oxidase in Escherichia coli and its purification and characterization” (AMB Express, 2018).

In general, Km refers to the concentration of substrate that gives half-maximal velocity.

Substrate in the data set: CC(C)CCC[C@@H](C)[C@H]1CC[C@H]2[C@@H]3CC=C4C[C@@H](O)CC[C@]4(C)[C@H]3CC[C@]12C
The data set can be described thus: purified protein. Type of data set: biochemical, Streptomyces sp. SA-COO. The following applies: 0-1 mM cholesterol, 0.1 M potassium phosphate pH 7, 25 °C.

B1: ChOA (cholesterol oxidase from Streptomyces sp. SA-COO) (Streptomyces sp. SA-COO) (protein)
chain: DNGGYVPAVVIGTGYGAAVSALRLGEAGVQTLMLEMGQLWNQPGPDGNIFCGMLNPDKRSSWFKNRTEAPLGSFLWLDVVNRNIDPYAGVLDRVNYDQMSVYVGRGVGGGSLVNGGMAVEPKRSYFEEILPRVDSSEMYDRYFPRANSMLRVNHIDTKWFEDTEWYKFARVSREQAGKAGLGTVFVPNVYDFGYMQREAAGEVPKSALATEVIYGNNHGKQSLDKTYLAAALGTGKVTIQTLHQVKTIRQTKDGGYALTVEQKDTDGKLLATKEISCRYLFLGAGSLGSTELLVRARDTGTLPNLNSEVGAGWGPNGNIMTARANHMWNPTGAHQSSIPALGIDAWDNSDSSVFAEIAPMPAGLETWVSLYLAITKNPQRGTFVYDAATDRAKLNWTRDQNAPAVNAAKALFDRINKANGTIYRYDLFGTQLKAFADDFCYHPLGGCVLGKATDDYGRVAGYKNLYVTDGSLIPGSVGVNPFVTITALAERNVERIIKQDVTAS
Take B1: the Km was 13 µM.
